Experimental data from patent US20200095340A1.

molecular target: biotinylated human DLL3 protein expressed as a human IgG1 fusion protein (human) (UniProt Q9NYJ7); test: Octet, biotinylated human DLL3-IgG1 fusion on streptavidin tips, single 50 nM, conditioned medium (relative KD)
Sequence (Q9NYJ7 27-492): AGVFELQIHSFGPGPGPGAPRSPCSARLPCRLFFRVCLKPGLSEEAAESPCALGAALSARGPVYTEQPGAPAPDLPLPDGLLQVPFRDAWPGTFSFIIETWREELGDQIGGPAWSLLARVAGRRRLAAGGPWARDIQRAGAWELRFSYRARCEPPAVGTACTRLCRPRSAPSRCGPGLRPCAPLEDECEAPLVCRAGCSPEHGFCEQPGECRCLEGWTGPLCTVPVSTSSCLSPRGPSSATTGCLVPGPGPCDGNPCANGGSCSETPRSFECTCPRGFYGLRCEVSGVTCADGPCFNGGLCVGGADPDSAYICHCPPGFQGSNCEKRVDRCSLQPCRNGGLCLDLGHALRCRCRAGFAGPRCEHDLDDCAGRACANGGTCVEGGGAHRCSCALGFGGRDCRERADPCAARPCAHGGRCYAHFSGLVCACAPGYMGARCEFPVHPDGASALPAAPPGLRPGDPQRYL

Kd [nM]	Binder
12	anti-DLL3 trispecific protein, DLL3 binder 3A08 (protein, part only; not given: CD3 binder and albumin binder, part only) chain, part: EVQLVESGGGLVQPGGSLTLSCAASGSSVGFLSMAWYRQAPGKKRELVAGISADGSTDYIRSVKGRFTISRDNAKNSVYLQMNSLRAEDTAVYYCYAYRWRTRYTYWGQGTLVTVSSGGGGSGGGSGGGGSGGGSHHHHHH
12	anti-DLL3 trispecific protein, DLL3 binder 3B02 (protein, part only; not given: CD3 fragment and albumin sdAb, part only) chain, part: EVQLVESGGGLVQPGGSLTLSCAASGSSVQFLSMAWYRQAPGKKRELVAGISADGSTDYINSVKGRFTISRDNAKNSVYLQMNSLRAEDTAVYYCYAYRWRTRYTYWGQGTLVTVSSGGGGSGGGSGGGGSGGGSHHHHHH
13	anti-DLL3 trispecific protein, DLL3 binder 3F03 (protein, part only; not given: CD3 fragment and albumin sdAb, part only) chain, part: EVQLVESGGGLVQPGGSLTLSCAASGSSVSFLSMAWYRQAPGKKRELVAGISADGSTDYIDSVKGRFTISRDNAKNSVYLQMNSLRAEDTAVYYCYAYRWRTRYTYWGQGTLVTVSSGGGGSGGGSGGGGSGGGSHHHHHH
13	anti-DLL3 trispecific protein, DLL3 binder 3H07 (protein, part only; not given: anti-CD3 and anti-albumin domains, part only) chain, part: EVQLVESGGGLVQPGGSLTLSCAASGSRVSFLSMAWYRQAPGKKRELVAGISADGSTSYIDSVKGRFTISRDNAKNSVYLQMNSLRAEDTAVYYCYAYRWRTRYTYWGQGTLVTVSSGGGGSGGGSGGGGSGGGSHHHHHH
13	anti-DLL3 trispecific protein, DLL3 binder 4A06 (protein, part only; not given: anti-CD3 fragment and anti-albumin domain, part only) chain, part: EVQLVESGGGLVQPGGSLTLSCAASGSSVRFLSMAWYRQAPGKKRELVAGISRDGSTDYIDSVKGRFTISRDNAKNSVYLQMNSLRAEDTAVYYCYAYRWTTRRTYWGQGTLVTVSSGGGGSGGGSGGGGSGGGSHHHHHH
14	anti-DLL3 trispecific protein, DLL3 binder 3C011 (protein, part only; not given: anti-CD3 fragment and anti-albumin domain, part only) chain, part: EVQLVESGGGLVQPGGSLTLSCAASGSSVRFLSMAWYRQAPGKKRELVAGISAHGSTDYIDSVKGRFTISRDNAKNSVYLQMNSLRAEDTAVYYCYAYRWRTRYTYWGQGTLVTVSSGGGGSGGGSGGGGSGGGSHHHHHH
14	anti-DLL3 trispecific protein, DLL3 binder 3H09 (protein, part only; not given: anti-CD3 fragment and anti-albumin domain, part only) chain, part: EVQLVESGGGLVQPGGSLTLSCAASKSSVSFLSMAWYRQAPGKKRELVAGISADGSTDYIDSVKGRFTISRDNAKNSVYLQMNSLRAEDTAVYYCYAYRWTTRATYWGQGTLVTVSSGGGGSGGGSGGGGSGGGSHHHHHH
12	anti-DLL3 trispecific protein, DLL3 binder 4F03 (protein, part only; not given: CD3 binder and albumin binder, part only) chain, part: EVQLVESGGGLVQPGGSLTLSCAASGSSVQFLSMAWYRQAPGKKRELVAGISYDGSTDYIDSVKGRFTISRDNAKNSVYLQMNSLRAEDTAVYYCYAYRWRTRYTYWGQGTLVTVSSGGGGSGGGSGGGGSGGGSHHHHHH
14	anti-DLL3 trispecific protein, DLL3 binder 3F08 (protein, part only; not given: CD3 fragment and albumin sdAb, part only) chain, part: EVQLVESGGGLVQPGGSLTLSCAASGSRVSFLSMAWYRQAPGKKRELVAGISADGSTLYIDSVKGRFTISRDNAKNSVYLQMNSLRAEDTAVYYCYAYRWHTRYTYWGQGTLVTVSSGGGGSGGGSGGGGSGGGSHHHHHH
14	anti-DLL3 trispecific protein, DLL3 binder 3D010 (protein, part only; not given: CD3 binder and albumin binder, part only) chain, part: EVQLVESGGGLVQPGGSLTLSCAASGSSKSFLSMAWYRQAPGKKRELVAGISADGSTSYIDSVKGRFTISRDNAKNSVYLQMNSLRAEDTAVYYCYAYRWTTRYTYWGQGTLVTVSSGGGGSGGGSGGGGSGGGSHHHHHH
14	anti-DLL3 trispecific protein, DLL3 binder 3C01 (protein, part only; not given: CD3 binder and albumin binder, part only) chain, part: EVQLVESGGGLVQPGGSLTLSCAASGSSVRFLSMAWYRQAPGKKRELVAGISAHGSTDYIDSVKGRFTISRDNAKNSVYLQMNSLRAEDTAVYYCYAYRWSTRYTYWGQGTLVTVSSGGGGSGGGSGGGGSGGGSHHHHHH
13	anti-DLL3 trispecific protein, DLL3 binder 4E011 (protein, part only; not given: anti-CD3 fragment and anti-albumin sdAb, part only) chain, part: EVQLVESGGGLVQPGGSLTLSCAASGSSVSFLSMAWYRQAPGKKRELVAGISATGSTDYIDSVKGRFTISRDNAKNSVYLQMNSLRAEDTAVYYCYAYRWSTRYTYWGQGTLVTVSSGGGGSGGGSGGGGSGGGSHHHHHH
13	anti-DLL3 trispecific protein, DLL3 binder 4H03 (protein, part only; not given: CD3 binder and albumin binder, part only) chain, part: EVQLVESGGGLVQPGGSLTLSCAASGSRVSFLSMAWYRQAPGKKRELVAGISADGSTSYIDSVKGRFTISRDNAKNSVYLQMNSLRAEDTAVYYCYAYRWTTRYTYWGQGTLVTVSSGGGGSGGGSGGGGSGGGSHHHHHH
13	anti-DLL3 trispecific protein, DLL3 binder 3G07 (protein, part only; not given: anti-CD3 fragment and anti-albumin sdAb, part only) chain, part: EVQLVESGGGLVQPGGSLTLSCAASGSSVSFLSMAWYRQAPGKKRELVAGISRDGSTDYIDSVKGRFTISRDNAKNSVYLQMNSLRAEDTAVYYCYAYRWTSRYTYWGQGTLVTVSSGGGGSGGGSGGGGSGGGSHHHHHH
12	anti-DLL3 trispecific protein, DLL3 binder 1B08 (protein, part only; not given: CD3 binder and albumin binder, part only) chain, part: EVQLVESGGGLVQPGGSLTLSCVASGTTSSINAMGWYRRAPGKQRELVAGISSDGSKVYVDSVKGRFTISRDNAKNSVYLQMNSLRAEDTAVYYCYYFRFVSGSSMRYWGQGTLVTVSSGGGGSGGGSGGGGSGGGSHHHHHH
13	anti-DLL3 trispecific protein, DLL3 binder 1F07 (protein, part only; not given: CD3 fragment and albumin sdAb, part only) chain, part: EVQLVESGGGLVQPGGSLTLSCVASGSTSSINAMGWYRRAPGKQRELVAGISSDGSKVDADSVKGRFTISRDNAKNSVYLQMNSLRAEDTAVYYCYYFRTVSGSSMRYWGQGTLVTVSSGGGGSGGGSGGGGSGGGSHHHHHH
14	anti-DLL3 trispecific protein, DLL3 binder 1G05 (protein, part only; not given: anti-CD3 fragment and anti-albumin sdAb, part only) chain, part: EVQLVESGGGLVQPGGSLTLSCVASGSTSSINAIGWYRRAPGKQRELVAGISSDGSKYYADSVKGRFTISRDNAKNSVYLQMNSLRAEDTAVYYCYYFRTVTGSSMRYWGQGTLVTVSSGGGGSGGGSGGGGSGGGSHHHHHH
14	anti-DLL3 trispecific protein, DLL3 binder 2D02 (protein, part only; not given: anti-CD3 fragment and anti-albumin sdAb, part only) chain, part: EVQLVESGGGLVQPGGSLTLSCVASGSTSSINALGWYRRAPGKQRELVAGISSDGSLVYADSVKGRFTISRDNAKNSVYLQMNSLRAEDTAVYYCYYFRIVSGSSMRYWGQGTLVTVSSGGGGSGGGSGGGGSGGGSHHHHHH
14	anti-DLL3 trispecific protein, DLL3 binder 1E05 (protein, part only; not given: anti-CD3 fragment and anti-albumin domain, part only) chain, part: EVQLVESGGGLVQPGGSLTLSCVASGSTSVINAMAWYRRAPGKQRELAAGISSDGSKVYAKSAKGRFTISRDNAKNSVYLQMNSLRAEDTAVYYCYYFNTVSGSSMRYWGQGTLVTVSSGGGGSGGGSGGGGSGGGSHHHHHH
14	anti-DLL3 trispecific protein, DLL3 binder 1H06 (protein, part only; not given: anti-CD3 fragment and anti-albumin sdAb, part only) chain, part: EVQLVESGGGLVQPGGSLTLSCVASGTTSSINAMGWYRRAPGKQRELVAGISSDGSKVYVDSVKGRFTISRDNAKNSVYLQMNSLRAEDTAVYYCYYFRFLSGSSMRYWGQGTLVTVSSGGGGSGGGSGGGGSGGGSHHHHHH
13	anti-DLL3 trispecific protein, DLL3 binder 2G011 (protein, part only; not given: anti-CD3 fragment and anti-albumin sdAb, part only) chain, part: EVQLVESGGGLVQPGGSLTLSCVASGSTSSINAMGWYRRAPGKQRELPAGISRDGSKVYADSVKGRFTISRDNAKNSVYLQMNSLRAEDTAVYYCYYFRYVSGSSMRYWGQGTLVTVSSGGGGSGGGSGGGGSGGGSHHHHHH
14	anti-DLL3 trispecific protein, DLL3 binder 1D02 (protein, part only; not given: CD3 binder and albumin binder, part only) chain, part: EVQLVESGGGLVQPGGSLTLSCVASGSTSSINAMAWYRRAPGKQRELVAGISSNGSKVYADSVKGRFTISRDNAKNSVYLQMNSLRAEDTAVYYCYYFRQVSGSSMRYWGQGTLVTVSSGGGGSGGGSGGGGSGGGSHHHHHH
